According to patent US12332249B1, “Biomolecule detection method using diffusion ordered spectroscopy” (KUWAIT UNIVERSITY, priority 2024, dated 2025):

Key:
[1] = aqueous native avidin; cited from earlier work
[2] = Hydrodynamic radius from DOSY diffusion coefficient by Stokes-Einstein equation; assay type: physicochemical; settings: obtained using Equation 2 (Stokes-Einstein)
Experimental: According to Stokes-Einstein equation mentioned below, the diffusion coefficient of solutes is directly linked to the hydrodynamic radius.
Where Rh is the hydrodynamic radius, kB is the Boltzmann constant, T is the temperature in K and η is the solution viscosity ([…] for D2O, and 30° C.) and D is the diffusion coefficient. The diffusion coefficient value is directly proportional to the temperature (T) and inversely proportional to the hydrodynamic radius. Thus, the hydrodynamic radius is related to the molecular weight, the higher the molecular weight, the larger the radius, the lower the diffusion and vice versa.

avidin: protein with four identical subunits, each containing one binding site for biotin; from Sigma Aldrich
hydrodynamic radius by dynamic light scattering (DLS) [1]: 26.4±0.3 Å
hydrodynamic radius (Rh) [2]: 22.02 Å
